Measurements: article PMC6082141

Columns and labels:
[1] = biological target: microtubules assembled from porcine brain tubulin (porcine) (UniProt P02550); test: TIRF microscopy, fluorescence intensity on MTs
[2] = biological target: carboxypeptidase A (CPA)-treated microtubules from porcine brain tubulin (porcine) (UniProt P02550); test: TIRF microscopy, fluorescence intensity on MTs
[3] = biological target: microtubules assembled from porcine brain tubulin (porcine) (UniProt P02550); test: TIRF microscopy, MT-MT sliding assay
[4] = biological target: microtubules assembled from porcine brain tubulin (porcine) (UniProt P02550); test: single-molecule TIRF microscopy

TMR-labeled p150-SNAP (from UniProt Q14203-1 1-1278) (natural protein)
integrated p150 intensity on the MT (minus background, per pixel) [1]: 2950 a.u. | integrated p150 intensity on the MT (minus background, per pixel) [2]: 1100 a.u.

dynein-dynactin-BicD2 co-complex (DDB) (from UniProt Q921C5 1-820; P38650 1-4644; P28023 1-1280)
lifetime (τ) of foci of two MT minus-ends brought into contact and held by DDB [3]: 14.4 s | dwell time at MT minus-ends, long population (τ2) [4]: 54.8 s | percent of incoming molecules that dwell at MT minus-ends with DDB clusters [4]: 83% | percent of incoming molecules that dwell at bare (vacant) MT minus-ends [4]: 77%
